What all share (experiment): cryo-EM structure
Assay [1] addresses ConSOSL.UFO soluble gp140 Env trimer, unmodified (GMP) (HIV-1 (group M consensus)).
The target of assay [2] is ConM SOSIP soluble gp140 Env trimer, unmodified (GMP) (HIV-1 (group M consensus)).
The target in assay [3] is EDC cross-linked ConM SOSIP soluble gp140 Env trimer (GMP) (HIV-1 (group M consensus)).
The target of assay [4] is EDC cross-linked ConSOSL.UFO soluble gp140 Env trimer (GMP) (HIV-1 (group M consensus)).

With “ConSOSL.UFO soluble gp140 Env trimer, unmodified (GMP) (complex)”, the stoichiometry N in assay [1] was found to be 3.

The substance “ConM SOSIP soluble gp140 Env trimer, unmodified (GMP) (complex)” gave a stoichiometry N in assay [2] of 3.

In assay [3], “EDC cross-linked ConM SOSIP soluble gp140 Env trimer (GMP) (complex)” returned a stoichiometry N of 3.

For “EDC cross-linked ConSOSL.UFO soluble gp140 Env trimer (GMP) (complex)”, the stoichiometry N in assay [4] worked out at 3.

Source of the values: PMC10345191.
